B1: REGN14315 (antibody, V domains shown)
VH: QVQLVQSGAEVKKPGSSVKVSCKASGDTFSTYAINWVRQAPGQGLEWMGRFIHIFGTANYAQKFQGRVTITADESTSTAYMELRSLRSEDTAVYYCARDGVDYGDYRPDYWGQGTLVTVSS
VL: EIVLTQSPGTLSLSPGERATLSCRASQSVSSNYLAWYQQKPGQAPRLLIYGASSRATGIPERFSGSGSGTDFTLTISRLEPEDFAVYYCQQYGSSLYTFGQGTKLEIK
B2: REGN14315 + REGN10987 (protein)
VH 1: B1 VH
VL 1: B1 VL
VH 2: QVQLVESGGGVVQPGRSLRLSCAASGFTFSNYAMYWVRQAPGKGLEWVAVISYDGSNKYYADSVKGRFTISRDNSKNTLYLQMNSLRTEDTAVYYCASGSDYGDYLLVYWGQGTLVTVSS
VL 2: QSALTQPASVSGSPGQSITISCTGTSSDVGGYNYVSWYQQHPGKAPKLMIYDVSKRPSGVSNRFSGSKSGNTASLTISGLQSEDEADYYCNSLTSISTWVFGGGTKLTVL
B3: REGN10987 (antibody, V domains shown)
VH: B2 VH 2
VL: B2 VL 2

The target of this experiment is SARS-COV-2 Spike, Omicron variant BA.4 + R346T (BA.4.6) (SARS-COV-2), P0DTC2. Description: cell-based or functional assay.
In the case of B1, the Fold change over R10987 against D614G amounted to 255 fold and the pseudovirus neutralization IC50 stood at 1.35 nM.
Take B2: the Fold change over R10987 against D614G was determined as 132 fold and the pseudovirus neutralization IC50 stood at 0.698 nM.
The corresponding values for B3 are 236 fold and 1.25 nM.

The record behind these values is patent US20240309072A1.
